Here are results for 84 variants from the RNAGym collection of RNA variant scans (doi:10.1093/molbev/msab373).

The labels stand for the following.
B1: Azoarcus group I ribozyme (parent)
chain: GUGCCUUGCGCCGGGAAACCACGCAAGGGAUGGUGUCAAAUUCGGCGAAACCUAAGCGCCCGCCCGGGCGUAUGGCAACGCCGAGCCAAGCUUCGGCGCCUGCGCCGAUGAAGGUGUAGAGACUAGACGGCACCCACCUAAGGCAAACGCUAUGGUGAAGGCAUAGUCCAGGGAGUGGCGAAAGUCACACAAACCGG

Variants of B1 are the subject of this data set. Kind of data set: reverse-splicing fitness (ratio to wild type); higher = more active; in vitro selection; Mg2+ level not given. The method, boiled down: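 An in vitro group I ribozyme library with randomized positions was T7-transcribed and gel-purified. In triplicate, 10 pmol RNA in EPPS pH 7.5 was reacted with 50 pmoles of a 30-nt RNA substrate for 1 h at 37 °C across several added MgCl2 levels (1–48 mM), then stopped with EDTA. Products were reverse transcribed from a substrate-complementary primer, PCR-amplified and sequenced (HiSeq 4000). Fitness is a variant's read proportion after selection over that before, normalised to wild type.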
Take C82A A111U A145G C150U C169G U176A: the reverse-splicing fitness was determined as 0.0134.

Take C82A A120C A145C C150U U176A: the reverse-splicing fitness was found to be 0.0172.

Turning to C82A A120C A145C C150U U176G, the reverse-splicing fitness stood at 0.00635.

Regarding C82A A120C A145C C150U U176C, the reverse-splicing fitness came to 0.0227.

Regarding C82A A111U A145U C169U U176A, the reverse-splicing fitness turned out to be 0.0142.

As for C82A A111U A145U C169U U176G, the reverse-splicing fitness was found to be 0.00541.

For the variant C82A A111U A145U C169U U176C, the reverse-splicing fitness amounted to 0.0139.

Consider C82A A120C A145U C150G C169A U176C, for which the reverse-splicing fitness amounted to 0.0131.

Regarding C82A A120C A145U C150G C169A U176G, the reverse-splicing fitness is 0.00455.

As to C82A A120C A145U C150G C169A U176A, the reverse-splicing fitness amounted to 0.0116.

In the case of C82A A111U A145U C150A C169U U176G, the reverse-splicing fitness came out at 0.00771.

In the case of C82A A111U A145U C150A C169U U176C, the reverse-splicing fitness came out at 0.0127.

With C82A A111U A145U C150A C169U U176A, the reverse-splicing fitness was 0.0147.

For the variant C82A A111U A145U C150A C169G U176A, the reverse-splicing fitness was found to be 0.0157.

Turning to C82A A111U A145U C150A C169G U176C, the reverse-splicing fitness came out at 0.0188.

For the variant C82A A111U A145U C150A C169G U176G, the reverse-splicing fitness turned out to be 0.00712.

Regarding C82A A120C, the reverse-splicing fitness was 0.144.

As for C82A A120C A145G C150G C169U, the reverse-splicing fitness was 0.0111.

On to C82A A120C A145G C150G C169G, for which the reverse-splicing fitness is 0.00868.

With C82A A120C A145G C150G C169A, the reverse-splicing fitness stood at 0.01.

For the variant C82A A111U A145G C150A U176G, the reverse-splicing fitness is 0.0112.

Turning to C82A A111U A145G C150A U176A, the reverse-splicing fitness was 0.0206.

For C82A A111U A145G C150A U176C, the reverse-splicing fitness stood at 0.0448.

For C82A A111U A145U C150G U176G, the reverse-splicing fitness was found to be 0.00528.

Take C82A A111U A145U C150G U176C: the reverse-splicing fitness is 0.0189.

Regarding C82A A111U A145U C150G U176A, the reverse-splicing fitness turned out to be 0.01.

As to C82A A111U A145U U176G, the reverse-splicing fitness stood at 0.0281.

For C82A A111U A145U U176C, the reverse-splicing fitness was determined as 0.134.

In the case of C82A A111U A145U U176A, the reverse-splicing fitness amounted to 0.0937.

Regarding C82A A111U A145U C150U U176C, the reverse-splicing fitness was found to be 0.0933.

As for C82A A111U A145U C150U U176A, the reverse-splicing fitness was 0.0636.

Turning to C82A A111U A145U C150U U176G, the reverse-splicing fitness is 0.0184.

For C82A A111U C169U, the reverse-splicing fitness worked out at 0.014.

In the case of C82A A111U C169A, the reverse-splicing fitness worked out at 0.00917.

For the variant C82A A111U C169G, the reverse-splicing fitness is 0.00884.

In the case of C82A A120C A145C C169A U176A, the reverse-splicing fitness amounted to 0.015.

With C82A A120C A145C C169A U176C, the reverse-splicing fitness stood at 0.00953.

For the variant C82A A120C A145C C169A U176G, the reverse-splicing fitness was 0.00403.

As to C82A A111U C150A U176C, the reverse-splicing fitness was determined as 0.0292.

With C82A A111U C150A U176A, the reverse-splicing fitness turned out to be 0.0197.

Consider C82A A111U C150A U176G, for which the reverse-splicing fitness came to 0.00995.

For C82A A120C A145U C150A C169G U176C, the reverse-splicing fitness worked out at 0.0221.

In the case of C82A A120C A145U C150A C169G U176A, the reverse-splicing fitness was 0.0165.

On to C82A A120C A145U C150A C169G U176G, for which the reverse-splicing fitness was 0.00546.

In the case of C82A A111U C150G C169A U176G, the reverse-splicing fitness was determined as 0.00757.

For the variant C82A A111U C150G C169A U176C, the reverse-splicing fitness was 0.0105.

With C82A A111U C150G C169A U176A, the reverse-splicing fitness turned out to be 0.0116.

On to C82A A111U C150G U176C, for which the reverse-splicing fitness was 0.015.

With C82A A111U C150G U176G, the reverse-splicing fitness is 0.00369.

Turning to C82A A111U C150G U176A, the reverse-splicing fitness worked out at 0.00718.

On to C82A A111U A145G C150U C169G, for which the reverse-splicing fitness amounted to 0.00968.

In the case of C82A A111U A145G C150U C169A, the reverse-splicing fitness is 0.0109.

On to C82A A111U A145G C150U C169U, for which the reverse-splicing fitness is 0.0139.

As to C82A A111U A145U C150U C169A, the reverse-splicing fitness worked out at 0.00985.

As to C82A A111U A145U C150U C169G, the reverse-splicing fitness came to 0.00969.

Turning to C82A A111U A145U C150U C169U, the reverse-splicing fitness turned out to be 0.0124.

For C82A A120C A145G C150U C169G U176G, the reverse-splicing fitness is 0.00573.

Regarding C82A A120C A145G C150U C169G U176C, the reverse-splicing fitness worked out at 0.0202.

As to C82A A120C A145G C150U C169G U176A, the reverse-splicing fitness is 0.0144.

In the case of C82A A120C A145G C169A, the reverse-splicing fitness was found to be 0.00985.

Turning to C82A A120C A145G C169G, the reverse-splicing fitness is 0.0102.

Turning to C82A A120C A145G C169U, the reverse-splicing fitness was 0.0214.

Regarding C82A A120C A145G C150G C169U U176C, the reverse-splicing fitness is 0.015.

For C82A A120C A145G C150G C169U U176G, the reverse-splicing fitness turned out to be 0.00779.

Turning to C82A A120C A145G C150G C169U U176A, the reverse-splicing fitness turned out to be 0.0135.

For the variant C82A A120C A145C C169G U176G, the reverse-splicing fitness was 0.00536.

With C82A A120C A145C C169G U176A, the reverse-splicing fitness amounted to 0.031.

For the variant C82A A120C A145C C169G U176C, the reverse-splicing fitness came to 0.0239.

Consider C82A A111U C169A U176G, for which the reverse-splicing fitness turned out to be 0.00595.

For C82A A111U C169A U176C, the reverse-splicing fitness stood at 0.0202.

On to C82A A111U C169A U176A, for which the reverse-splicing fitness worked out at 0.0172.

As to C82A A111U A145U C150G C169U U176A, the reverse-splicing fitness was 0.00775.

Regarding C82A A111U A145U C150G C169U U176G, the reverse-splicing fitness came out at 0.00727.

As for C82A A111U A145U C150G C169U U176C, the reverse-splicing fitness came to 0.0122.

On to C82A A111U A145G C169A U176C, for which the reverse-splicing fitness worked out at 0.0292.

For C82A A111U A145G C169A U176G, the reverse-splicing fitness is 0.00574.

As to C82A A111U A145G C169A U176A, the reverse-splicing fitness was 0.0221.

For C82A A111U A145G U176A, the reverse-splicing fitness is 0.0978.

Turning to C82A A111U A145G U176C, the reverse-splicing fitness was 0.151.

With C82A A111U A145G U176G, the reverse-splicing fitness was 0.0224.

Regarding C82A A111U A145U C150G C169A U176A, the reverse-splicing fitness was found to be 0.0106.

C82A A111U A145U C150G C169A U176G: the reverse-splicing fitness was determined as 0.00651.

Consider C82A A111U A145U C150G C169A U176C, for which the reverse-splicing fitness came out at 0.0109.

As for C82A A120C A145G C150G U176C, the reverse-splicing fitness is 0.0148.
